The numbers were not newly measured in PMC4065351, which cites them from elsewhere.

The subject of this series is Cys2 (position 2, ----ECG----). To be noted: free reduced glutathione.

“Glutathione (GSH, gamma-L-glutamyl-L-cysteinylglycine) (not applicable (ubiquitous low-molecular-weight thiol))”: the pKa is 8.93.
